B1: GpH7-B3 variant S239_08L/GpL16-k0 (antibody, human IgG1, kappa)
heavy: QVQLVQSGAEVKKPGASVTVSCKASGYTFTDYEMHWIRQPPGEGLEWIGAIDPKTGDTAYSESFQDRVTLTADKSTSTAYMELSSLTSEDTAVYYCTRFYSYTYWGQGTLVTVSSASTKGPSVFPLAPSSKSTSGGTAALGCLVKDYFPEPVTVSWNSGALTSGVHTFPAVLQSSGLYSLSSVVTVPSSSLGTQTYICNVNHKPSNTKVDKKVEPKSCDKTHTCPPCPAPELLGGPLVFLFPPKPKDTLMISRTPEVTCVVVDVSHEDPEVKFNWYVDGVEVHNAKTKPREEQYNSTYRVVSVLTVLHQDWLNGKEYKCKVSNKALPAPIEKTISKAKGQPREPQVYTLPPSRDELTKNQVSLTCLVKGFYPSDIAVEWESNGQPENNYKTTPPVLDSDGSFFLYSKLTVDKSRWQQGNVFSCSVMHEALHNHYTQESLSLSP
light: DIVMTQSPLSLPVTPGEPASISCQASESLVHSNRNTYLHWYLQKPGQSPQLLIYKVSNRFSGVPDRFSGSGSGTDFTLKISRVEAEDVGVYYCSQNTHVPPTFGQGTKVEIERTVAAPSVFIFPPSDEQLKSGTASVVCLLNNFYPREAKVQWKVDNALQSGNSQESVTEQDSKDSTYSLSSTLTLSKADYEKHKVYACEVTHQGLSSPVTKSFNRGEC
notes: homodimerized: alteration in both H chains; also called Ho Ab S239_08L
B2: GpH7-B3 variant S337_03V/GpL16-k0 (antibody, human IgG1, kappa)
heavy: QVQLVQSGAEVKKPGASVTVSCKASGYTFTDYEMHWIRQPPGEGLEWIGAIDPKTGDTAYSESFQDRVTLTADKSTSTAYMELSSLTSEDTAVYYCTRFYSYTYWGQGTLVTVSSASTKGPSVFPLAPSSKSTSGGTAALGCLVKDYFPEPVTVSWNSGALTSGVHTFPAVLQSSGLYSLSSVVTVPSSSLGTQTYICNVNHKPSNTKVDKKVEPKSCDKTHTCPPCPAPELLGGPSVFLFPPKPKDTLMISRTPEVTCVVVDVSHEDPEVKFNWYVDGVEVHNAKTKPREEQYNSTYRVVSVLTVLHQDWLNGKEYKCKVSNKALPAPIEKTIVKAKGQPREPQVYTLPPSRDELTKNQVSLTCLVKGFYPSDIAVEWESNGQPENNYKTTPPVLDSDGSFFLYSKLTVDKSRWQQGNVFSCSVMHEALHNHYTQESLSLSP
light: DIVMTQSPLSLPVTPGEPASISCQASESLVHSNRNTYLHWYLQKPGQSPQLLIYKVSNRFSGVPDRFSGSGSGTDFTLKISRVEAEDVGVYYCSQNTHVPPTFGQGTKVEIERTVAAPSVFIFPPSDEQLKSGTASVVCLLNNFYPREAKVQWKVDNALQSGNSQESVTEQDSKDSTYSLSSTLTLSKADYEKHKVYACEVTHQGLSSPVTKSFNRGEC
notes: homodimerized: alteration in both H chains; also called Ho Ab S337_03V
B3: GpH7-B3 variant S267_06M/GpL16-k0 (antibody, human IgG1, kappa)
heavy: not shown
light: DIVMTQSPLSLPVTPGEPASISCQASESLVHSNRNTYLHWYLQKPGQSPQLLIYKVSNRFSGVPDRFSGSGSGTDFTLKISRVEAEDVGVYYCSQNTHVPPTFGQGTKVEIERTVAAPSVFIFPPSDEQLKSGTASVVCLLNNFYPREAKVQWKVDNALQSGNSQESVTEQDSKDSTYSLSSTLTLSKADYEKHKVYACEVTHQGLSSPVTKSFNRGEC
notes: homodimerized: alteration in both H chains; also called Ho Ab S267_06M
B4: GpH7-B3 variant S324_06M/GpL16-k0 (antibody, human IgG1, kappa)
heavy: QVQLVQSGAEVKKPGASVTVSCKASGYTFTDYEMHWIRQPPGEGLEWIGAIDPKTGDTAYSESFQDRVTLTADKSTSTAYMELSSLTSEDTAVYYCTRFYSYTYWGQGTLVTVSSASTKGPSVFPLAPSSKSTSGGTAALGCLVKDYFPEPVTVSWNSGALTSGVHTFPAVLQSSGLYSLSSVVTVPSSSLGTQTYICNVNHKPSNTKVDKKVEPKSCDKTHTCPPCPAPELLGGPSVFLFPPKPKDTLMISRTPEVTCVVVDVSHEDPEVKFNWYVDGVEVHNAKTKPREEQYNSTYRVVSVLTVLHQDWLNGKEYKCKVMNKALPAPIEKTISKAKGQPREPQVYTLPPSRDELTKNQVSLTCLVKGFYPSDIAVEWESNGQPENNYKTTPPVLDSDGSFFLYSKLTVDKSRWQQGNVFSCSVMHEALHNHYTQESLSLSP
light: DIVMTQSPLSLPVTPGEPASISCQASESLVHSNRNTYLHWYLQKPGQSPQLLIYKVSNRFSGVPDRFSGSGSGTDFTLKISRVEAEDVGVYYCSQNTHVPPTFGQGTKVEIERTVAAPSVFIFPPSDEQLKSGTASVVCLLNNFYPREAKVQWKVDNALQSGNSQESVTEQDSKDSTYSLSSTLTLSKADYEKHKVYACEVTHQGLSSPVTKSFNRGEC
notes: homodimerized: alteration in both H chains; also called Ho Ab S324_06M
B5: GpH7-B3 variant S337_07I/GpL16-k0 (antibody, human IgG1, kappa)
heavy: not shown
light: DIVMTQSPLSLPVTPGEPASISCQASESLVHSNRNTYLHWYLQKPGQSPQLLIYKVSNRFSGVPDRFSGSGSGTDFTLKISRVEAEDVGVYYCSQNTHVPPTFGQGTKVEIERTVAAPSVFIFPPSDEQLKSGTASVVCLLNNFYPREAKVQWKVDNALQSGNSQESVTEQDSKDSTYSLSSTLTLSKADYEKHKVYACEVTHQGLSSPVTKSFNRGEC
notes: homodimerized: alteration in both H chains; also called Ho Ab S337_07I
B6: GpH7-B3 variant S337_18N/GpL16-k0 (antibody, human IgG1, kappa)
heavy: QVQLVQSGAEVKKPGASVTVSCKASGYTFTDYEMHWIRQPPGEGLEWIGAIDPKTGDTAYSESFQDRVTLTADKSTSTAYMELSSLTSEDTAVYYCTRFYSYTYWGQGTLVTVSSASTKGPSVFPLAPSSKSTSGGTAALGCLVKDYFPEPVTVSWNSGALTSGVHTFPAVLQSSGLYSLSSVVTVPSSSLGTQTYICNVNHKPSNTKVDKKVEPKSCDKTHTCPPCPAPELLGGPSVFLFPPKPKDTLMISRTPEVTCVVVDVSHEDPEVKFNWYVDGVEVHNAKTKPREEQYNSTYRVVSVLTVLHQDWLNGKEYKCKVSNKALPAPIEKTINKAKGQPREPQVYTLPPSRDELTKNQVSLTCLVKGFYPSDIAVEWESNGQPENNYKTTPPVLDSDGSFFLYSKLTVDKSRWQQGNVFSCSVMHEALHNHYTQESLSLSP
light: DIVMTQSPLSLPVTPGEPASISCQASESLVHSNRNTYLHWYLQKPGQSPQLLIYKVSNRFSGVPDRFSGSGSGTDFTLKISRVEAEDVGVYYCSQNTHVPPTFGQGTKVEIERTVAAPSVFIFPPSDEQLKSGTASVVCLLNNFYPREAKVQWKVDNALQSGNSQESVTEQDSKDSTYSLSSTLTLSKADYEKHKVYACEVTHQGLSSPVTKSFNRGEC
notes: homodimerized: alteration in both H chains; also called Ho Ab S337_18N
B7: GpH7-B3 variant S267_03V/GpL16-k0 (antibody, human IgG1, kappa)
heavy: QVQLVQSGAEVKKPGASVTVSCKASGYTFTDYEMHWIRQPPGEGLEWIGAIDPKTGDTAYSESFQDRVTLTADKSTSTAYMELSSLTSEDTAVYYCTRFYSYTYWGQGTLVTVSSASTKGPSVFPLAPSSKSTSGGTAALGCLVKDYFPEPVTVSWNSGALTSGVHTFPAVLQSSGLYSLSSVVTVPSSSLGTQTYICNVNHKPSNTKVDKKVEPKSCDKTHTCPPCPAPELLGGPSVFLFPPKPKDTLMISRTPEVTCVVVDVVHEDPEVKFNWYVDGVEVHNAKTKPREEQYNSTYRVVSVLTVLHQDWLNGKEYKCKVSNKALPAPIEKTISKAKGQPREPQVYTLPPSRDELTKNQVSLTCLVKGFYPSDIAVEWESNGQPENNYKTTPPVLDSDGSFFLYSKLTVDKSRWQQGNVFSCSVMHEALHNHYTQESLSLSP
light: DIVMTQSPLSLPVTPGEPASISCQASESLVHSNRNTYLHWYLQKPGQSPQLLIYKVSNRFSGVPDRFSGSGSGTDFTLKISRVEAEDVGVYYCSQNTHVPPTFGQGTKVEIERTVAAPSVFIFPPSDEQLKSGTASVVCLLNNFYPREAKVQWKVDNALQSGNSQESVTEQDSKDSTYSLSSTLTLSKADYEKHKVYACEVTHQGLSSPVTKSFNRGEC
notes: homodimerized: alteration in both H chains; also called Ho Ab S267_03V
B8: GpH7-B3 variant S267_09D/GpL16-k0 (antibody, human IgG1, kappa)
heavy: not shown
light: DIVMTQSPLSLPVTPGEPASISCQASESLVHSNRNTYLHWYLQKPGQSPQLLIYKVSNRFSGVPDRFSGSGSGTDFTLKISRVEAEDVGVYYCSQNTHVPPTFGQGTKVEIERTVAAPSVFIFPPSDEQLKSGTASVVCLLNNFYPREAKVQWKVDNALQSGNSQESVTEQDSKDSTYSLSSTLTLSKADYEKHKVYACEVTHQGLSSPVTKSFNRGEC
notes: homodimerized: alteration in both H chains; also called Ho Ab S267_09D
B9: GpH7-B3 variant S337_10E/GpL16-k0 (antibody, human IgG1, kappa)
heavy: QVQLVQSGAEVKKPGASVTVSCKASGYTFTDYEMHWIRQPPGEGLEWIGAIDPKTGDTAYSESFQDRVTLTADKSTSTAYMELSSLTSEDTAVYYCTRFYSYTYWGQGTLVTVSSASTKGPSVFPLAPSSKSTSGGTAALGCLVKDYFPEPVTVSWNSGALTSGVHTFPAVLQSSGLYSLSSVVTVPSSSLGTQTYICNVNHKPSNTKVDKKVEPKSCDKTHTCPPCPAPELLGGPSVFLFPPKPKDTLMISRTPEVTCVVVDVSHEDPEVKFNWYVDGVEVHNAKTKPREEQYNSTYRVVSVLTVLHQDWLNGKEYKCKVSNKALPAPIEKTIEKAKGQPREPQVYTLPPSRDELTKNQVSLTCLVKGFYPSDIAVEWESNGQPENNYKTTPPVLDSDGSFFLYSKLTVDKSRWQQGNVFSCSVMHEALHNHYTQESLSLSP
light: DIVMTQSPLSLPVTPGEPASISCQASESLVHSNRNTYLHWYLQKPGQSPQLLIYKVSNRFSGVPDRFSGSGSGTDFTLKISRVEAEDVGVYYCSQNTHVPPTFGQGTKVEIERTVAAPSVFIFPPSDEQLKSGTASVVCLLNNFYPREAKVQWKVDNALQSGNSQESVTEQDSKDSTYSLSSTLTLSKADYEKHKVYACEVTHQGLSSPVTKSFNRGEC
notes: homodimerized: alteration in both H chains; also called Ho Ab S337_10E
B10: GpH7-B3 variant S298_08L/GpL16-k0 (antibody, human IgG1, kappa)
heavy: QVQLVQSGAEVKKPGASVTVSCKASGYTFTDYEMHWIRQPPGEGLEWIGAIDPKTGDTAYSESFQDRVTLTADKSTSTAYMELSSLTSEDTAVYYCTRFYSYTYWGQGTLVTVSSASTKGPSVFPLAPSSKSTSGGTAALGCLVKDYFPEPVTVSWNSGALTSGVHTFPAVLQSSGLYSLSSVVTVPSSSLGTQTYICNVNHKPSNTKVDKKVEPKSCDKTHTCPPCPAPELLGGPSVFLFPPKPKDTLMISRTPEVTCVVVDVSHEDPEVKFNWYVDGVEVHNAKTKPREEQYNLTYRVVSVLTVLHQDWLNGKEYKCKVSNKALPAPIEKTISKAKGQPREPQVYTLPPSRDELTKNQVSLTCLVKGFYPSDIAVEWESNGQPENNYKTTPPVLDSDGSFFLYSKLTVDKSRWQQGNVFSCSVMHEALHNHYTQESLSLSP
light: DIVMTQSPLSLPVTPGEPASISCQASESLVHSNRNTYLHWYLQKPGQSPQLLIYKVSNRFSGVPDRFSGSGSGTDFTLKISRVEAEDVGVYYCSQNTHVPPTFGQGTKVEIERTVAAPSVFIFPPSDEQLKSGTASVVCLLNNFYPREAKVQWKVDNALQSGNSQESVTEQDSKDSTYSLSSTLTLSKADYEKHKVYACEVTHQGLSSPVTKSFNRGEC
notes: homodimerized: alteration in both H chains; also called Ho Ab S298_08L
B11: GpH7-B3 variant S337_16H/GpL16-k0 (antibody, human IgG1, kappa)
heavy: not shown
light: DIVMTQSPLSLPVTPGEPASISCQASESLVHSNRNTYLHWYLQKPGQSPQLLIYKVSNRFSGVPDRFSGSGSGTDFTLKISRVEAEDVGVYYCSQNTHVPPTFGQGTKVEIERTVAAPSVFIFPPSDEQLKSGTASVVCLLNNFYPREAKVQWKVDNALQSGNSQESVTEQDSKDSTYSLSSTLTLSKADYEKHKVYACEVTHQGLSSPVTKSFNRGEC
notes: homodimerized: alteration in both H chains; also called Ho Ab S337_16H
B12: GpH7-B3 variant S239_10E/GpL16-k0 (antibody, human IgG1, kappa)
heavy: not shown
light: DIVMTQSPLSLPVTPGEPASISCQASESLVHSNRNTYLHWYLQKPGQSPQLLIYKVSNRFSGVPDRFSGSGSGTDFTLKISRVEAEDVGVYYCSQNTHVPPTFGQGTKVEIERTVAAPSVFIFPPSDEQLKSGTASVVCLLNNFYPREAKVQWKVDNALQSGNSQESVTEQDSKDSTYSLSSTLTLSKADYEKHKVYACEVTHQGLSSPVTKSFNRGEC
notes: homodimerized: alteration in both H chains; also called Ho Ab S239_10E
B13: GpH7-B3 variant S337_09D/GpL16-k0 (antibody, human IgG1, kappa)
heavy: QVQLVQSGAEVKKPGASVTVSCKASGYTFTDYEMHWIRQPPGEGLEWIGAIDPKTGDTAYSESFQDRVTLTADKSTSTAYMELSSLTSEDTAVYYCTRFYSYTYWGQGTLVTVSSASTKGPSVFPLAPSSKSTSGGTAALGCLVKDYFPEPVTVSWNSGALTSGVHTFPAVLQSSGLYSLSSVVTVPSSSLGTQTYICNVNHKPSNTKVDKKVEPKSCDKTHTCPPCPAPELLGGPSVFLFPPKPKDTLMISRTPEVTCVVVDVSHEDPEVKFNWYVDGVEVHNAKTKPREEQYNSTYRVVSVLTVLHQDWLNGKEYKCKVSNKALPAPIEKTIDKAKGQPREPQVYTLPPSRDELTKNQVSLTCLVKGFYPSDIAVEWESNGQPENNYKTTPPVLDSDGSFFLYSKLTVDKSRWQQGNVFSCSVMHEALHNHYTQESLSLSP
light: DIVMTQSPLSLPVTPGEPASISCQASESLVHSNRNTYLHWYLQKPGQSPQLLIYKVSNRFSGVPDRFSGSGSGTDFTLKISRVEAEDVGVYYCSQNTHVPPTFGQGTKVEIERTVAAPSVFIFPPSDEQLKSGTASVVCLLNNFYPREAKVQWKVDNALQSGNSQESVTEQDSKDSTYSLSSTLTLSKADYEKHKVYACEVTHQGLSSPVTKSFNRGEC
notes: homodimerized: alteration in both H chains; also called Ho Ab S337_09D
B14: GpH7-B3 variant S337_15Y/GpL16-k0 (antibody, human IgG1, kappa)
heavy: not shown
light: DIVMTQSPLSLPVTPGEPASISCQASESLVHSNRNTYLHWYLQKPGQSPQLLIYKVSNRFSGVPDRFSGSGSGTDFTLKISRVEAEDVGVYYCSQNTHVPPTFGQGTKVEIERTVAAPSVFIFPPSDEQLKSGTASVVCLLNNFYPREAKVQWKVDNALQSGNSQESVTEQDSKDSTYSLSSTLTLSKADYEKHKVYACEVTHQGLSSPVTKSFNRGEC
notes: homodimerized: alteration in both H chains; also called Ho Ab S337_15Y
B15: GpH7-B3 variant S267_19Q/GpL16-k0 (antibody, human IgG1, kappa)
heavy: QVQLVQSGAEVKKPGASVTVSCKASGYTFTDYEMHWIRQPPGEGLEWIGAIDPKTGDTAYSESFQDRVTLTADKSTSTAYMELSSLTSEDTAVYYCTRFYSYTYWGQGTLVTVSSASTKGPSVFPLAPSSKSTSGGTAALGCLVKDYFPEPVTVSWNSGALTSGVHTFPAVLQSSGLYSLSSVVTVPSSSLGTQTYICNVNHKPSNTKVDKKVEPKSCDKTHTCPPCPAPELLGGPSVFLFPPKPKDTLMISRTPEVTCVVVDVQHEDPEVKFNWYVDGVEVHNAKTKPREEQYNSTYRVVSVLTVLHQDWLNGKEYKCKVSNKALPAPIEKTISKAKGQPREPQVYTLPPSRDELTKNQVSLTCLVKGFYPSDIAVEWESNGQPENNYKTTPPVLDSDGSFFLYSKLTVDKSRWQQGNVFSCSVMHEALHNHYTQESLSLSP
light: DIVMTQSPLSLPVTPGEPASISCQASESLVHSNRNTYLHWYLQKPGQSPQLLIYKVSNRFSGVPDRFSGSGSGTDFTLKISRVEAEDVGVYYCSQNTHVPPTFGQGTKVEIERTVAAPSVFIFPPSDEQLKSGTASVVCLLNNFYPREAKVQWKVDNALQSGNSQESVTEQDSKDSTYSLSSTLTLSKADYEKHKVYACEVTHQGLSSPVTKSFNRGEC
notes: homodimerized: alteration in both H chains; also called Ho Ab S267_19Q
B16: GpH7-B3 variant S239_18N/GpL16-k0 (antibody, human IgG1, kappa)
heavy: not shown
light: DIVMTQSPLSLPVTPGEPASISCQASESLVHSNRNTYLHWYLQKPGQSPQLLIYKVSNRFSGVPDRFSGSGSGTDFTLKISRVEAEDVGVYYCSQNTHVPPTFGQGTKVEIERTVAAPSVFIFPPSDEQLKSGTASVVCLLNNFYPREAKVQWKVDNALQSGNSQESVTEQDSKDSTYSLSSTLTLSKADYEKHKVYACEVTHQGLSSPVTKSFNRGEC
notes: homodimerized: alteration in both H chains; also called Ho Ab S239_18N
B17: GpH7-B3 variant T335_02A/GpL16-k0 (antibody, human IgG1, kappa)
heavy: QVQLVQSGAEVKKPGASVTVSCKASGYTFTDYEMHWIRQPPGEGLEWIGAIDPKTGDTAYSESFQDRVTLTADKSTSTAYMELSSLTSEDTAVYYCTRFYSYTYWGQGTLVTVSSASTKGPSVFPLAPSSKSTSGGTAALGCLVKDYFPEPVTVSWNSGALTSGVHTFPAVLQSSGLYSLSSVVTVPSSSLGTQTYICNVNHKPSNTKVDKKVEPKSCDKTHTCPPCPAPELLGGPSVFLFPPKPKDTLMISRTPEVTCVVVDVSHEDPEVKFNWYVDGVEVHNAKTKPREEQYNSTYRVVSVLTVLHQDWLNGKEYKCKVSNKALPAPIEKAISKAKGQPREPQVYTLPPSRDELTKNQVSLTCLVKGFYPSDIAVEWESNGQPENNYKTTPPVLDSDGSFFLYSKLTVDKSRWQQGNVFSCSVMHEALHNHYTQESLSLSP
light: DIVMTQSPLSLPVTPGEPASISCQASESLVHSNRNTYLHWYLQKPGQSPQLLIYKVSNRFSGVPDRFSGSGSGTDFTLKISRVEAEDVGVYYCSQNTHVPPTFGQGTKVEIERTVAAPSVFIFPPSDEQLKSGTASVVCLLNNFYPREAKVQWKVDNALQSGNSQESVTEQDSKDSTYSLSSTLTLSKADYEKHKVYACEVTHQGLSSPVTKSFNRGEC
notes: homodimerized: alteration in both H chains; also called Ho Ab T335_02A
B18: GpH7-B3 variant S337_06M/GpL16-k0 (antibody, human IgG1, kappa)
heavy: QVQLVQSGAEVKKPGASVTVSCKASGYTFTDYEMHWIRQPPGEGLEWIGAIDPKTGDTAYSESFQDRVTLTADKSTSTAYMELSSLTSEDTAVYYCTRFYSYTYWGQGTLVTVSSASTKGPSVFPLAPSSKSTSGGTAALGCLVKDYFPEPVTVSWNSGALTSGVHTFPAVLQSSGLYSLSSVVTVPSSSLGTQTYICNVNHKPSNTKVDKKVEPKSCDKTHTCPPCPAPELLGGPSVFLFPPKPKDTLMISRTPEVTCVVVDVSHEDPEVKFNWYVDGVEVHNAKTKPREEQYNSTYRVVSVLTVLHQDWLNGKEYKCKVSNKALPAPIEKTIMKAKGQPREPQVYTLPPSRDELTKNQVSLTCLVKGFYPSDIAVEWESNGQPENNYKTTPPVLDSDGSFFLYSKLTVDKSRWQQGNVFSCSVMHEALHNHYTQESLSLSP
light: DIVMTQSPLSLPVTPGEPASISCQASESLVHSNRNTYLHWYLQKPGQSPQLLIYKVSNRFSGVPDRFSGSGSGTDFTLKISRVEAEDVGVYYCSQNTHVPPTFGQGTKVEIERTVAAPSVFIFPPSDEQLKSGTASVVCLLNNFYPREAKVQWKVDNALQSGNSQESVTEQDSKDSTYSLSSTLTLSKADYEKHKVYACEVTHQGLSSPVTKSFNRGEC
notes: homodimerized: alteration in both H chains; also called Ho Ab S337_06M
B19: GpH7-B3 variant S337_20W/GpL16-k0 (antibody, human IgG1, kappa)
heavy: not shown
light: DIVMTQSPLSLPVTPGEPASISCQASESLVHSNRNTYLHWYLQKPGQSPQLLIYKVSNRFSGVPDRFSGSGSGTDFTLKISRVEAEDVGVYYCSQNTHVPPTFGQGTKVEIERTVAAPSVFIFPPSDEQLKSGTASVVCLLNNFYPREAKVQWKVDNALQSGNSQESVTEQDSKDSTYSLSSTLTLSKADYEKHKVYACEVTHQGLSSPVTKSFNRGEC
notes: homodimerized: alteration in both H chains; also called Ho Ab S337_20W
B20: GpH7-B3 variant S337_19Q/GpL16-k0 (antibody, human IgG1, kappa)
heavy: not shown
light: DIVMTQSPLSLPVTPGEPASISCQASESLVHSNRNTYLHWYLQKPGQSPQLLIYKVSNRFSGVPDRFSGSGSGTDFTLKISRVEAEDVGVYYCSQNTHVPPTFGQGTKVEIERTVAAPSVFIFPPSDEQLKSGTASVVCLLNNFYPREAKVQWKVDNALQSGNSQESVTEQDSKDSTYSLSSTLTLSKADYEKHKVYACEVTHQGLSSPVTKSFNRGEC
notes: homodimerized: alteration in both H chains; also called Ho Ab S337_19Q

The target of the test is T1, FcγRIIa R extracellular domain with C-terminal His tag (human, UniProt P12318 34-217).
T1 construct: extracellular domain; also called FcgRIIa R; 2aR; not shown: His tag at the C terminus
T1 sequence (looked up): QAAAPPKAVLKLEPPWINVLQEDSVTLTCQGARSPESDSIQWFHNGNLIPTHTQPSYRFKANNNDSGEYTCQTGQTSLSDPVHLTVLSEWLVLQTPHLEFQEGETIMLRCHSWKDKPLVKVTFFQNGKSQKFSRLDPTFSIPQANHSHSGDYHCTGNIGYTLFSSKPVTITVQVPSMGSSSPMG
Briefly: SPR (Biacore), relative FcγRIIa R binding, GpH7-B3/GpL16-k0 = 100. On the procedure: Analysis of interaction between objective antibody and the FcγR was carried out using Biacore T100 (GE Healthcare). HBS-EP+ (GE Healthcare) was used as the running buffer, and the measurement temperature was set to 25° C. Chips produced by immobilizing the antigen peptide by the amine coupling method to a Series S Sencor Chip CM5 (GE Healthcare), or alternatively, chips produced by allowing preliminarily biotinylated antigen peptides to interact with and immobilize onto a Series S Sensor Chip SA (certified) (GE Healthcare) were used. Antibodies of interest were captured onto an antigen peptide-immobilized chip, and allowed to interact to each FcγR diluted with running buffer. To regenerate and repeatedly use the chip, the antibodies captured on the chip were washed off by reacting 10 mM glycine-HCl, pH 1.5.
A general note: In SPR one partner is held on a chip, and binding of the other changes the refractive index at the surface.
Take B1: the Ho/Con_2aR was 106 % of control.
The result for B2 reads 102 % of control; that for B3, 102 % of control.
On to B4, for which the Ho/Con_2aR was 118 % of control.
Turning to B5, the Ho/Con_2aR was 103 % of control.
The value for B6 was 103 % of control; that for B7 was 115 % of control; that for B8 was 167 % of control.
The result for B9 reads 110 % of control; that for B10, 101 % of control; that for B11, 107 % of control.
The value for B12 was 122 % of control; that for B13 was 114 % of control.
For B14, the Ho/Con_2aR was 100 % of control.
The result for B15 reads 110 % of control; that for B16, 103 % of control; that for B17, 102 % of control.
Consider B18, for which the Ho/Con_2aR is 101 % of control.
The result for B19 reads 105 % of control; that for B20, 102 % of control.

For the origin of these results see US20150344570A1 (published 2015).
